{"source": "patent US20180155451A1", "about": "(published 2018)", "binders": {"B1": {"name": "GpH7-A5/GpH7-B3 variant D270_20W/GpL16-k0 (antibody, human IgG1, kappa)", "heavy 1": "not shown", "heavy 2": "not shown", "light": "DIVMTQSPLSLPVTPGEPASISCQASESLVHSNRNTYLHWYLQKPGQSPQLLIYKVSNRFSGVPDRFSGSGSGTDFTLKISRVEAEDVGVYYCSQNTHVPPTFGQGTKVEIERTVAAPSVFIFPPSDEQLKSGTASVVCLLNNFYPREAKVQWKVDNALQSGNSQESVTEQDSKDSTYSLSSTLTLSKADYEKHKVYACEVTHQGLSSPVTKSFNRGEC", "notes": "heterodimerized anti-glypican-3 IgG1; alteration in the GpH7-B3 chain only; also called He Ab"}, "B2": {"name": "GpH7-A5/GpH7-B3 variant E269_19Q/GpL16-k0 (antibody, human IgG1, kappa)", "heavy 1": "not shown", "heavy 2": "not shown", "light": "B1 light", "notes": "as for B1"}, "B3": {"name": "GpH7-A5/GpH7-B3 variant E269_20W/GpL16-k0 (antibody, human IgG1, kappa)", "heavy 1": "not shown", "heavy 2": "not shown", "light": "B1 light", "notes": "as for B1"}, "B4": {"name": "GpH7-A5/GpH7-B3 variant E333_01G/GpL16-k0 (antibody, human IgG1, kappa)", "heavy 1": "not shown", "heavy 2": "not shown", "light": "B1 light", "notes": "as for B1"}, "B5": {"name": "GpH7-A5/GpH7-B3 variant E333_02A/GpL16-k0 (antibody, human IgG1, kappa)", "heavy 1": "not shown", "heavy 2": "not shown", "light": "B1 light", "notes": "as for B1"}, "B6": {"name": "GpH7-A5/GpH7-B3 variant E333_03V/GpL16-k0 (antibody, human IgG1, kappa)", "heavy 1": "not shown", "heavy 2": "not shown", "light": "B1 light", "notes": "as for B1"}, "B7": {"name": "GpH7-A5/GpH7-B3 variant E333_04F/GpL16-k0 (antibody, human IgG1, kappa)", "heavy 1": "not shown", "heavy 2": "not shown", "light": "B1 light", "notes": "as for B1"}, "B8": {"name": "GpH7-A5/GpH7-B3 variant E333_05P/GpL16-k0 (antibody, human IgG1, kappa)", "heavy 1": "not shown", "heavy 2": "not shown", "light": "B1 light", "notes": "as for B1"}, "B9": {"name": "GpH7-A5/GpH7-B3 variant E333_06M/GpL16-k0 (antibody, human IgG1, kappa)", "heavy 1": "not shown", "heavy 2": "not shown", "light": "B1 light", "notes": "as for B1"}, "B10": {"name": "GpH7-A5/GpH7-B3 variant E333_07I/GpL16-k0 (antibody, human IgG1, kappa)", "heavy 1": "not shown", "heavy 2": "not shown", "light": "B1 light", "notes": "as for B1"}, "B11": {"name": "GpH7-A5/GpH7-B3 variant I332_12R/GpL16-k0 (antibody, human IgG1, kappa)", "heavy 1": "not shown", "heavy 2": "not shown", "light": "B1 light", "notes": "as for B1"}, "B12": {"name": "GpH7-A5/GpH7-B3 variant P271_03V/GpL16-k0 (antibody, human IgG1, kappa)", "heavy 1": "not shown", "heavy 2": "not shown", "light": "B1 light", "notes": "as for B1"}, "B13": {"name": "GpH7-A5/GpH7-B3 variant P271_04F/GpL16-k0 (antibody, human IgG1, kappa)", "heavy 1": "not shown", "heavy 2": "not shown", "light": "B1 light", "notes": "as for B1"}, "B14": {"name": "GpH7-A5/GpH7-B3 variant P271_06M/GpL16-k0 (antibody, human IgG1, kappa)", "heavy 1": "not shown", "heavy 2": "not shown", "light": "B1 light", "notes": "as for B1"}, "B15": {"name": "GpH7-A5/GpH7-B3 variant P271_07I/GpL16-k0 (antibody, human IgG1, kappa)", "heavy 1": "not shown", "heavy 2": "not shown", "light": "B1 light", "notes": "as for B1"}, "B16": {"name": "GpH7-A5/GpH7-B3 variant P271_15Y/GpL16-k0 (antibody, human IgG1, kappa)", "heavy 1": "not shown", "heavy 2": "not shown", "light": "B1 light", "notes": "as for B1"}, "B17": {"name": "GpH7-A5/GpH7-B3 variant P271_16H/GpL16-k0 (antibody, human IgG1, kappa)", "heavy 1": "not shown", "heavy 2": "not shown", "light": "B1 light", "notes": "as for B1"}, "B18": {"name": "GpH7-A5/GpH7-B3 variant P271_20W/GpL16-k0 (antibody, human IgG1, kappa)", "heavy 1": "not shown", "heavy 2": "not shown", "light": "B1 light", "notes": "as for B1"}, "B19": {"name": "GpH7-A5/GpH7-B3 variant P329_01G/GpL16-k0 (antibody, human IgG1, kappa)", "heavy 1": "not shown", "heavy 2": "not shown", "light": "B1 light", "notes": "as for B1"}, "B20": {"name": "GpH7-A5/GpH7-B3 variant P329_02A/GpL16-k0 (antibody, human IgG1, kappa)", "heavy 1": "not shown", "heavy 2": "not shown", "light": "B1 light", "notes": "as for B1"}, "B21": {"name": "GpH7-A5/GpH7-B3 variant Q295_01G/GpL16-k0 (antibody, human IgG1, kappa)", "heavy 1": "not shown", "heavy 2": "not shown", "light": "B1 light", "notes": "as for B1"}, "B22": {"name": "GpH7-A5/GpH7-B3 variant Q295_02A/GpL16-k0 (antibody, human IgG1, kappa)", "heavy 1": "not shown", "heavy 2": "not shown", "light": "B1 light", "notes": "as for B1"}, "B23": {"name": "GpH7-A5/GpH7-B3 variant Q295_03V/GpL16-k0 (antibody, human IgG1, kappa)", "heavy 1": "not shown", "heavy 2": "not shown", "light": "B1 light", "notes": "as for B1"}, "B24": {"name": "GpH7-A5/GpH7-B3 variant Q295_04F/GpL16-k0 (antibody, human IgG1, kappa)", "heavy 1": "not shown", "heavy 2": "not shown", "light": "B1 light", "notes": "as for B1"}, "B25": {"name": "GpH7-A5/GpH7-B3 variant Q295_05P/GpL16-k0 (antibody, human IgG1, kappa)", "heavy 1": "not shown", "heavy 2": "not shown", "light": "B1 light", "notes": "as for B1"}}}
{"target": "T1, FcγRIa extracellular domain with C-terminal His tag (human, UniProt P12314 16-292)", "T1 construct": "extracellular domain; soluble receptor expressed in FreeStyle293 cells, used as analyte in Biacore; also called FcgRI; 1a; not shown: His tag attached to the C terminus", "T1 sequence (P12314 16-292)": "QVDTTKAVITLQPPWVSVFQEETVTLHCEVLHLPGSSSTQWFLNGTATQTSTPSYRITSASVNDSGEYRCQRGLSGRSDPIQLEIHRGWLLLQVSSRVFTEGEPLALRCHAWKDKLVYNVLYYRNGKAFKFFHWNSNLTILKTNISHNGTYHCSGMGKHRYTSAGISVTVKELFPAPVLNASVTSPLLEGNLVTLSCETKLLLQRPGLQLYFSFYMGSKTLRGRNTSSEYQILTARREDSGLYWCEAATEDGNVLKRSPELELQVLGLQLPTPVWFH", "experiment": "SPR (Biacore), antibody captured on antigen peptide chip, FcγR as analyte; relative binding"}
{"binder": "B1", "He/Con_1a": "68 % of control GpH7-A5/GpH7-B3/GpL16-k0 (=100)"}
{"binder": "B2", "He/Con_1a": "105 % of control GpH7-A5/GpH7-B3/GpL16-k0 (=100)"}
{"binder": "B3", "He/Con_1a": "105 % of control GpH7-A5/GpH7-B3/GpL16-k0 (=100)"}
{"binder": "B4", "He/Con_1a": "103 % of control GpH7-A5/GpH7-B3/GpL16-k0 (=100)"}
{"binder": "B5", "He/Con_1a": "103 % of control GpH7-A5/GpH7-B3/GpL16-k0 (=100)"}
{"binder": "B6", "He/Con_1a": "105 % of control GpH7-A5/GpH7-B3/GpL16-k0 (=100)"}
{"binder": "B7", "He/Con_1a": "102 % of control GpH7-A5/GpH7-B3/GpL16-k0 (=100)"}
{"binder": "B8", "He/Con_1a": "102 % of control GpH7-A5/GpH7-B3/GpL16-k0 (=100)"}
{"binder": "B9", "He/Con_1a": "102 % of control GpH7-A5/GpH7-B3/GpL16-k0 (=100)"}
{"binder": "B10", "He/Con_1a": "102 % of control GpH7-A5/GpH7-B3/GpL16-k0 (=100)"}
{"binder": "B11", "He/Con_1a": "100 % of control GpH7-A5/GpH7-B3/GpL16-k0 (=100)"}
{"binder": "B12", "He/Con_1a": "102 % of control GpH7-A5/GpH7-B3/GpL16-k0 (=100)"}
{"binder": "B13", "He/Con_1a": "102 % of control GpH7-A5/GpH7-B3/GpL16-k0 (=100)"}
{"binder": "B14", "He/Con_1a": "102 % of control GpH7-A5/GpH7-B3/GpL16-k0 (=100)"}
{"binder": "B15", "He/Con_1a": "102 % of control GpH7-A5/GpH7-B3/GpL16-k0 (=100)"}
{"binder": "B16", "He/Con_1a": "103 % of control GpH7-A5/GpH7-B3/GpL16-k0 (=100)"}
{"binder": "B17", "He/Con_1a": "102 % of control GpH7-A5/GpH7-B3/GpL16-k0 (=100)"}
{"binder": "B18", "He/Con_1a": "103 % of control GpH7-A5/GpH7-B3/GpL16-k0 (=100)"}
{"binder": "B19", "He/Con_1a": "101 % of control GpH7-A5/GpH7-B3/GpL16-k0 (=100)"}
{"binder": "B20", "He/Con_1a": "102 % of control GpH7-A5/GpH7-B3/GpL16-k0 (=100)"}
{"binder": "B21", "He/Con_1a": "97.6 % of control GpH7-A5/GpH7-B3/GpL16-k0 (=100)"}
{"binder": "B22", "He/Con_1a": "104 % of control GpH7-A5/GpH7-B3/GpL16-k0 (=100)"}
{"binder": "B23", "He/Con_1a": "104 % of control GpH7-A5/GpH7-B3/GpL16-k0 (=100)"}
{"binder": "B24", "He/Con_1a": "102 % of control GpH7-A5/GpH7-B3/GpL16-k0 (=100)"}
{"binder": "B25", "He/Con_1a": "103 % of control GpH7-A5/GpH7-B3/GpL16-k0 (=100)"}
{"target": "T2, FcγRIIb extracellular domain with C-terminal His tag (human, UniProt P31994 43-217)", "T2 construct": "extracellular domain; soluble receptor expressed in FreeStyle293 cells, used as analyte in Biacore; also called FcgRIIb; 2b; not shown: His tag attached to the C terminus", "T2 sequence (looked up)": "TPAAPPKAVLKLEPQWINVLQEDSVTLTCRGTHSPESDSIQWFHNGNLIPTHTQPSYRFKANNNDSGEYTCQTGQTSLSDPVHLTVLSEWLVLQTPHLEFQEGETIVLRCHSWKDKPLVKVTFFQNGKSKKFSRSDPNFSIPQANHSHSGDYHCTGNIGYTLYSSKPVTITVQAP", "experiment": "SPR (Biacore), antibody captured on antigen peptide chip, FcγR as analyte; relative binding"}
{"binder": "B1", "He/Con_2b": "34.7 % of control GpH7-A5/GpH7-B3/GpL16-k0 (=100)"}
{"binder": "B2", "He/Con_2b": "44.3 % of control GpH7-A5/GpH7-B3/GpL16-k0 (=100)"}
{"binder": "B3", "He/Con_2b": "42.5 % of control GpH7-A5/GpH7-B3/GpL16-k0 (=100)"}
{"binder": "B4", "He/Con_2b": "81.4 % of control GpH7-A5/GpH7-B3/GpL16-k0 (=100)"}
{"binder": "B5", "He/Con_2b": "83.8 % of control GpH7-A5/GpH7-B3/GpL16-k0 (=100)"}
{"binder": "B6", "He/Con_2b": "93.2 % of control GpH7-A5/GpH7-B3/GpL16-k0 (=100)"}
{"binder": "B7", "He/Con_2b": "94.6 % of control GpH7-A5/GpH7-B3/GpL16-k0 (=100)"}
{"binder": "B8", "He/Con_2b": "97.7 % of control GpH7-A5/GpH7-B3/GpL16-k0 (=100)"}
{"binder": "B9", "He/Con_2b": "85.4 % of control GpH7-A5/GpH7-B3/GpL16-k0 (=100)"}
{"binder": "B10", "He/Con_2b": "96.2 % of control GpH7-A5/GpH7-B3/GpL16-k0 (=100)"}
{"binder": "B11", "He/Con_2b": "48.9 % of control GpH7-A5/GpH7-B3/GpL16-k0 (=100)"}
{"binder": "B12", "He/Con_2b": "74.8 % of control GpH7-A5/GpH7-B3/GpL16-k0 (=100)"}
{"binder": "B13", "He/Con_2b": "59.5 % of control GpH7-A5/GpH7-B3/GpL16-k0 (=100)"}
{"binder": "B14", "He/Con_2b": "77.5 % of control GpH7-A5/GpH7-B3/GpL16-k0 (=100)"}
{"binder": "B15", "He/Con_2b": "76.8 % of control GpH7-A5/GpH7-B3/GpL16-k0 (=100)"}
{"binder": "B16", "He/Con_2b": "52.3 % of control GpH7-A5/GpH7-B3/GpL16-k0 (=100)"}
{"binder": "B17", "He/Con_2b": "67.9 % of control GpH7-A5/GpH7-B3/GpL16-k0 (=100)"}
{"binder": "B18", "He/Con_2b": "58.1 % of control GpH7-A5/GpH7-B3/GpL16-k0 (=100)"}
{"binder": "B19", "He/Con_2b": "41.7 % of control GpH7-A5/GpH7-B3/GpL16-k0 (=100)"}
{"binder": "B20", "He/Con_2b": "40.5 % of control GpH7-A5/GpH7-B3/GpL16-k0 (=100)"}
{"binder": "B21", "He/Con_2b": "46 % of control GpH7-A5/GpH7-B3/GpL16-k0 (=100)"}
{"binder": "B22", "He/Con_2b": "79.7 % of control GpH7-A5/GpH7-B3/GpL16-k0 (=100)"}
{"binder": "B23", "He/Con_2b": "75.7 % of control GpH7-A5/GpH7-B3/GpL16-k0 (=100)"}
{"binder": "B24", "He/Con_2b": "64.7 % of control GpH7-A5/GpH7-B3/GpL16-k0 (=100)"}
{"binder": "B25", "He/Con_2b": "67.5 % of control GpH7-A5/GpH7-B3/GpL16-k0 (=100)"}
